The data set deals with the molecule itself. Kind of data set: dynamic light scattering; TRAF2-C 4 uM in kinase buffer (20 mM Tris-HCl pH 7.6, 150 mM NaCl, 10% glycerol); 20-35 °C, where the particle distribution is sharp and mono-disperse.

B1: TRAF2-C, C-terminal domain truncated form of TNF Receptor Associated Factor 2 (TRAF2) (domain or fragment, human, UniProt Q12933 310-501, looked up)
chain: DQDKIEALSSKVQQLERSIGLKDLAMADLEQKVLEMEASTYDGVFIWKISDFARKRQEAVAGRIPAIFSPAFYTSRYGYKMCLRIYLNGDGTGRGTHLSLFFVVMKGPNDALLRWPFNQKVTLMLLDQNNREHVIDAFRPDVTSSSFQRPVNDMNIASGCPLFCPVSKMEAKNSYVRDDAIFIKAIVDLTGL
notes: human TRAF2, C-terminal domain (TRAF2-C), residues 310-501; It describes the protein as a trimer in equilibrium with dimers and monomers; also called TRAF2-C domain; source: E. coli BL21 (DE3), purified (NiNTA, Sephadex G25)
On to B1, for which the binding result is “binds”.

For the origin of these results see PMC8198530, “The Odd Faces of Oligomers: The Case of TRAF2-C, A Trimeric C-Terminal Domain of TNF Receptor-Associated Factor” (International Journal of Molecular Sciences, 2021).
